# Source: publication PMC3663837
# Assays:
# SUMO-StPTB1 = test: phage ELISA; details: parent: est. 0.18; read off a plot
# SUMO-StPTB6 = test: phage ELISA; details: parent: est. 0.19; read off a plot
Substance,response (SUMO-StPTB1),response (SUMO-StPTB6)
phage-displayed StNova1 subdomain S2 G7del; G11del; G15del; G18del,0.079 λ490,0.079 λ490
phage-displayed StNova1 subdomain S2 G7del; G11del; P13del,0.044 λ490,0.043 λ490
phage-displayed StNova1 subdomain S2 G15del; G18del; P21del,0.11 λ490,0.13 λ490
